Laboratory results as given in patent publication US20210087270A1 (INNATE PHARMA, published 2021).

B1: antibody 2B12 (human IgG1) (antibody, V domains shown)
VH: QIQLVQSGPELKKPGETVRISCKASGYTFTTAGMQWVQKTPGKGLKWIGWINSHSGVPKYAEDFKGRFAFSLETSASTAYLQISTLKNEDTATYFCARGGDEGVMDYWGQGTSVTVS
VL: DIVMTQSHKFMSTSLGDRVSFTCKASQDVSTAVAWYQQKPGQSPKLLIYWTSTRHTGVPDRFTGSGSGTDYTLTISSVQAEDLALYYCQQHYSTPWTFGGGTKLEIK
notes: Used as human IgG1 in the HUT78 staining studies (Parts 1-3); also called 2B12-PE
B2: antibody 2B12 (parental, as generated in Example 1) (antibody, V domains shown)
VH: QIQLVQSGPELKKPGETVRISCKASGYTFTTAGMQWVQKTPGKGLKWIGWINSHSGVPKYAEDFKGRFAFSLETSASTAYLQISTLKNEDTATYFCARGGDEGVMDYWGQGTSVTVS
VL: DIVMTQSHKFMSTSLGDRVSFTCKASQDVSTAVAWYQQKPGQSPKLLIYWTSTRHTGVPDRFTGSGSGTDYTLTISSVQAEDLALYYCQQHYSTPWTFGGGTKLEIK
notes: From mouse hybridoma; It was detected with goat anti-mouse antibody in the internalization assay

What was measured:
[1] = molecular target: T1, human KIR3DL2 (CD158k), wild type, at the cell surface (human, UniProt P43630 22-455); experiment: cell-based or functional assay
T1 sequence (P43630 22-455 E158D): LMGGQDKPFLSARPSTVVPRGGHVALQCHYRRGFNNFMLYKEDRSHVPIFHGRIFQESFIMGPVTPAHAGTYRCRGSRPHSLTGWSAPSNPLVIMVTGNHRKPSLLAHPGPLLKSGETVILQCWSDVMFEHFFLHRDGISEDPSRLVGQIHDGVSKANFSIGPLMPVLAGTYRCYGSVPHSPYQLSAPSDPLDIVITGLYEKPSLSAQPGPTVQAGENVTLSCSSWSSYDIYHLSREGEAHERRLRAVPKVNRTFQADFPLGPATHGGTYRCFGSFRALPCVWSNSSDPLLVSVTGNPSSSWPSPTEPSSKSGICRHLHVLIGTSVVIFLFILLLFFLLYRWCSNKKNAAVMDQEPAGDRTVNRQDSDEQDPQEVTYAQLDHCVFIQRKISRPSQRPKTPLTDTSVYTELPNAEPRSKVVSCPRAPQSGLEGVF

[2] = molecular target: T1, human KIR3DL2 (CD158k), wild type, at …; experiment: flow cytometry on live HUT78 cells, 2 h at 37°C in RPMI10%, detection with anti-human-Fc PE, median of fluorescence
Method: (§1) This study aimed to evaluate the impact of staining conditions on 2B12 labelling of KIR3DL2-expressing cells, gated on total cells, at 4° C. or 37° C., and with incubation times of 2 hours, 4 hours or 24 hours. Briefly, 100,000 HUT78 cells per well were incubated with a dose range of 2B12 antibody starting from 0.0005 μg/ml to 30 μg/ml (serial dilution 1/3 in complete medium). The protocol used was as follows: incubation 2H; 4H and overnight at 4° C. and 37°; staining in RPMI 10% with or without PFA fixation; 2 washes in SB (150 μl/w); addition of anti-human-Fc PE for 30 min at 4° C.; 2 washes in SB (100 μl/w); and detection using FACS CANTO II.

[3] = molecular target: T1, human KIR3DL2 (CD158k), wild type, at …; experiment: flow cytometry on live HUT78 cells, 24 h at 37°C in RPMI10%, detection with anti-human-Fc PE, median of fluorescence
Method: as §1

[4] = molecular target: T1, human KIR3DL2 (CD158k), wild type, at …; experiment: panel Bound KIR3DL2 - GaH-PE: flow cytometry on HUT78 cells after 24 h at 37°C with 2B12; bound antibody detected with goat anti-human IgG Fc-PE, the concentration axis is in µg/ml
Method: (§2) This study aimed to evaluate the dynamics of KIR3DL2 receptor expression by observing the amount of total, free and 2B12-bound KIR3DL2 after different periods of incubation with antibody 2B12. Briefly, HUT78 cells (50,000 cells/well) were incubated for 1h, 24h or 48h at 37° C. in complete medium with 2B12 (human IgG1), dose range starting from 10 μg/ml (decreasing), 1/3 serial dilution, 11 concentrations, or with isotype control (IC), dose range starting (decreasing) from 10 μg/ml, 1/3 serial dilution, 11 concentrations. Dose ranges were made in triplicate in order to perform 3 staining conditions: [0323] Bound KIR3DL2 (30 min at 4° C.): GaH IgG Fc-PE, [0324] Free KIR3DL2+total KIR3DL2 (1h at 4° C.): 2B12-PE (10 μg/ml)+mAb2-APC (non-competing anti-KIR3DL2) (10 μg/ml), [0325] Total KIR3DL2 (1h+30 min at 4° C.): 2B12 (10 μg/ml)+GaH IgG Fc-PE.

[5] = molecular target: T1, human KIR3DL2 (CD158k), wild type, at …; experiment: panel Free KIR3DL2 - 2B12-PE: flow cytometry on HUT78 cells after 1 h at 37°C with unlabelled 2B12; loss of free KIR3DL2 detected with 2B12-PE at 10 µg/ml, the concentration axis is in µg/ml
Method: as §2

[6] = molecular target: T1, human KIR3DL2 (CD158k), wild type, at …; experiment: panel Free KIR3DL2 - 2B12-PE: flow cytometry on HUT78 cells after 24 h at 37°C with unlabelled 2B12; loss of free KIR3DL2 detected with 2B12-PE at 10 µg/ml, the concentration axis is in µg/ml
Method: as §2

[7] = molecular target: T1, human KIR3DL2 (CD158k), wild type, at …; experiment: flow cytometry on HUT78 cells after 20 h at 37°C; bound antibody detected with goat anti-human IgG Fc-PE (MdFI GaH-PE); the box prints no unit, the concentration axis is in µg/ml
Method: (§3) This study aimed to evaluate the impact of a 20 hour incubation with antibody 2B12 on cell surface KIR3DL2 level by observing the amount of bound 2B12 (human IgG1), free (non-antibody bound) cell surface KIR3DL2 polypeptide, and total cell surface KIR3DL2 polypeptide. Briefly, HUT78 (100,000 cells/well) were incubated for 20h at 37° C. with a dose range of 2B12 antibody starting from (decreasing) 8.88 μg/ml, 1/3 serial dilution, 11 concentrations. Dose ranges were made in duplicate in order to perform the following 2 staining conditions: [0317] Total KIR3DL2+bound KIR3DL2 (GaH IgG Fc-PE+mAb2-APC (a non-competing anti-KIR3LD2 mAb) (10 μg/ml) [0318] Free KIR3DL2: 2B12-PE (10 μg/ml).
(§4) Staining was performed at 4° C. in staining buffer for 1h and analyzed with a FACS Canto 11 HTS. The dark line/squares represents antibody 2B12 while the light line/circles represents isotype control. It can be seen that free KIR3DL2 receptors can be detected when incubating cells with 10 μg/ml of 2B12-PE and detecting free receptors with non-competing anti-KIR3DL2 antibody. It can be seen that 2B12-bound KIR3DL2 receptors can be detected by incubating cells with goat anti-human IgG Fc-PE secondary Ab. Both read-outs were correlated, with similar EC₅₀. […]

[8] = molecular target: T1, human KIR3DL2 (CD158k), wild type, at …; experiment: panel Free KIR3DL2 - 2B12-PE: flow cytometry on HUT78 cells after 48 h at 37°C with unlabelled 2B12; loss of free KIR3DL2 detected with 2B12-PE at 10 µg/ml, the concentration axis is in µg/ml
Method: as §2

[9] = molecular target: T1, human KIR3DL2 (CD158k), wild type, at …; experiment: flow cytometry on live HUT78 cells, 24 h at 4°C in RPMI10%, detection with anti-human-Fc PE, median of fluorescence
Method: as §1

[10] = molecular target: T1, human KIR3DL2 (CD158k), wild type, at …; experiment: panel Bound KIR3DL2 - GaH-PE: flow cytometry on HUT78 cells after 48 h at 37°C with 2B12; bound antibody detected with goat anti-human IgG Fc-PE, the concentration axis is in µg/ml
Method: as §2

[11] = molecular target: T1, human KIR3DL2 (CD158k), wild type, at …; experiment: flow cytometry on live HUT78 cells, 4 h at 37°C in RPMI10%, detection with anti-human-Fc PE, median of fluorescence
Method: as §1

[12] = molecular target: T1, human KIR3DL2 (CD158k), wild type, at …; experiment: cell-based or functional assay; remark: listed apart in the source
[13] = molecular target: T1, human KIR3DL2 (CD158k), wild type, at …; experiment: flow cytometry on HUT78 cells after 20 h at 37°C with unlabelled antibody; loss of free KIR3DL2 detected with PE-labelled 2B12 (IPH4102-PE on the sheet) at 10 µg/ml; the box prints no unit, the concentration axis is in µg/ml
Method: as §3, §4

[14] = molecular target: KIR3DL2 mutant having P14S, S15A and H23S substitutions (human, UniProt P43630 22-455); experiment: binding to a series of KIR3DL2 mutants
Chain of KIR3DL2 mutant having P14S, S15A and H23S substitutions (P43630 other isoform, or with tags, fused parts or gaps P14S S15A H23S P14S S15A H23S): as the sequence (P43630 22-455 E158D) above, with P14S, S15A, H23S counted along it

[15] = molecular target: KIR3DL2 mutant having I60N and G62S substitutions (human, UniProt P43630 22-455); experiment: binding to a series of KIR3DL2 mutants
Chain of KIR3DL2 mutant having I60N and G62S substitutions (P43630 other isoform, or with tags, fused parts or gaps I60N G62S I60N G62S): as the sequence (P43630 22-455 E158D) above, with I60N, G62S counted along it

KIR3DL1 (CD158e1) = molecular target: T2, KIR3DL1 (CD158e1) (UniProt P43629 22-444, limits assumed); experiment: hybridoma screening (flow cytometry, incl. HEK-293T/KIR3DL1 Domain 0-eGFP)
T2 construct: also called closely related KIR3DL1
T2 sequence (P43629 22-444 limits assumed): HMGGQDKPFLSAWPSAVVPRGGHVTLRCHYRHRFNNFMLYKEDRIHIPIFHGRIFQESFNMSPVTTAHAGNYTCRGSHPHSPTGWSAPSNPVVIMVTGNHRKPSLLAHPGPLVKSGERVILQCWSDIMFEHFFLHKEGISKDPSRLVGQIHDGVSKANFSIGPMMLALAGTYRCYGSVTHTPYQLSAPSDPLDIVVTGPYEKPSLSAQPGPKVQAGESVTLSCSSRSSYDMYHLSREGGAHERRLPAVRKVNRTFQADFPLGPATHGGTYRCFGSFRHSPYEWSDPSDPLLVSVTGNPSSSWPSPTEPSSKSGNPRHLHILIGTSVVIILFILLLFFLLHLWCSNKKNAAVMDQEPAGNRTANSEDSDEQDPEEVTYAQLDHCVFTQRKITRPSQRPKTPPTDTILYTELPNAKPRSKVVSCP
Method: Antibodies which bind KIR3DL2 but not closely related KIR3DL1 were generated by immunizing mice with recombinant KIR3DL2-Fc fusion protein, described in US patent publication number US-2015-0232556-A1. Supernatant (SN) of the growing hybridomas were tested by flow cytometry on Sezary Syndrome cell lines (HUT78, COU-L) and HEK-293T/KIR3DL2 Domain 0-eGFP. Potentially interesting hybridomas selected from the initial screening were cloned by limiting dilution techniques in 96-wells plates. The secondary screen involved selection of hybridomas of interest by testing supernatants of the subclones by flow cytometry on HUT78, COU-L, HEK-293T/KIR3DL1 Domain 0-eGFP and HEK-293T/KIR3DL2 Domain 0-eGFP. Positive subclones were injected into mice to produce ascitis and antibodies of interest were purified before being tested in a Biacore assay using rec KIR3DL2 chips, followed by various assays formats based on binding to human KIR3DL2-expressing cells.

Binder	EC50 of the increase of total cell-surface KIR3DL2 on HUT78 cells after 24 h at 37°C, panel Total KIR3DL2 - 2B12+GaH-PE [1]	EC50 of the increase of total cell-surface KIR3DL2 on HUT78 cells after 24 h at 37°C, panel Total KIR3DL2 - mAb2-APC [1]	EC50 of the increase of total cell-surface KIR3DL2 on HUT78 cells after 48 h at 37°C, panel Total KIR3DL2 - 2B12+GaH-PE [1]	EC50 of the increase of total cell-surface KIR3DL2 on HUT78 cells after 48 h at 37°C, panel Total KIR3DL2 - mAb2-APC [1]	EC50 (read off the curve) [2]	EC50 (read off the curve) [3]	EC50 [4]	EC50 [5]	EC50 [6]	EC50 [7]	EC50 [8]	EC50 (read off the curve) [9]	EC50 [10]	EC50 (read off the curve) [11]	EC50 of the increase of total cell-surface KIR3DL2 on HUT78 cells after 20 h at 37°C, detected with mAb2-APC (axis: MdFI 13E4-APC) [12]	EC50 [13]	binding result [14]	binding result [15]	binding result (KIR3DL1 (CD158e1))
B1	0.103 µg/mL	0.0599 µg/mL	0.0454 µg/mL	0.042 µg/mL	~0.1 µg/mL	~0.07 µg/mL	0.0566 µg/mL	0.104 µg/mL	0.0438 µg/mL	0.059 µg/mL	0.0178 µg/mL	~0.04 µg/mL	0.0163 µg/mL	~0.09 µg/mL	0.0789 µg/mL	0.0588 µg/mL	–	–	–
B2	–	–	–	–	–	–	–	–	–	–	–	–	–	–	–	–	binds	no binding	no binding
